The term Kd denotes the equilibrium constant for the complex coming apart.

The target of the experiment is T1, LeETR1 (Solanum lycopersicum, UniProt Q41342).
T1 construct: made in house; host or cells: E. coli
T1 sequence (Q41342 1-754): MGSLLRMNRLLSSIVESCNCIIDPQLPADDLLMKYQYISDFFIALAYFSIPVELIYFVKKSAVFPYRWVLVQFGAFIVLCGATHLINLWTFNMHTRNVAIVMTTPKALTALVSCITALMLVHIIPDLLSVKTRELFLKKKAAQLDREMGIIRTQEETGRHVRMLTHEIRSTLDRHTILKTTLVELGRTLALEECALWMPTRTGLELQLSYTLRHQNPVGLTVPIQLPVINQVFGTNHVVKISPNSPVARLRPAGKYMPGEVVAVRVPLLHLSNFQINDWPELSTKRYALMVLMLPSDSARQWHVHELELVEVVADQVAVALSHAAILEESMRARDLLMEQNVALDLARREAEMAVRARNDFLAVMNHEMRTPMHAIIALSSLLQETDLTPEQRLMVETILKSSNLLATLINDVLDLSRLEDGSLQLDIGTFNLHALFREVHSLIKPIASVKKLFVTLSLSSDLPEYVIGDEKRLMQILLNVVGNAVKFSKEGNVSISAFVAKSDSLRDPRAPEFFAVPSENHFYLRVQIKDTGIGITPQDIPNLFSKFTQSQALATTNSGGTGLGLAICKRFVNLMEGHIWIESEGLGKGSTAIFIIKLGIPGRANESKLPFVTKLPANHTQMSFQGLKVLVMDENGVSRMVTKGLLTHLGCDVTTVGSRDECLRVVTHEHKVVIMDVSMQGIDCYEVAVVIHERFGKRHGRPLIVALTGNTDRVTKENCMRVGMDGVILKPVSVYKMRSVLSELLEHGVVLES
The experiment in a line: MST interaction of labeled LeETR1 with LeEIN2^462–1316. The conditions noted are these: 0.4 μM LeETR1 labeled with Alexa Fluor 488 succinimidyl-ester, LeEIN2^462–1316 4.69 nM to 9.6 μM, 50 mM Tris-HCl pH 8.0, 300 mM NaCl, 0.015% (w/v) Fos-Choline-16, 80% MST power, independent triplicates, mean +/− standard deviation, read-out: Kd of LeEIN2-LeETR1 complex formation. The experiment is classed as binding, tomato. The source says:
Protein-protein interaction of LeEIN2 and LeETR1 was studied by microscale thermophoresis (MST). Thermophoresis, the motion of molecules in a temperature gradient, strongly depends on the hydration-shell, the charge and the size of the moving molecules. Typically, at least one of these features changes when a protein-protein interaction occurs. Thus, MST represents a highly sensitive and reliable tool to study protein-protein interactions. By recording the motion of a fluorescence-labeled molecule in the presence of increasing concentrations of a putative binding partner, the dissociation constant (Kd) reflecting the affinity of the interaction and the stability of the complex can be calculated. Recombinant LeETR1 was labeled with the fluorescent dye Alexa Fluor 488 and 0.4 μM of labeled LeETR1 was mixed with increasing concentrations of LeEIN2^462–1316 until saturation was reached (9.6 μM as final concentration). Binding of receptor and EIN2 was observed as a clear and strong response in the MST signal. […]
Figure 1 Interaction studies of tomato ETR1 and EIN2 via MST. […] Normalized fluorescence as MST signal is plotted against increasing LeEIN2^462–1316 (●) concentrations as described. […]

B1: LeEIN2^462–1316: recombinant C-terminal part of tomato EIN2, expressed in E. coli (protein)
chain: LKSASSRFDAQAFLQTHVPEPYSECNQLGASNAMFGLVEGSSQKQEGAFHVEKSLVSHPDLSTKDPDQLLPESLLDFEKVHQLATIDESKSETTFSAPAVVHPEVPVSAGASPSVKSVCNEVSGVVSVDTSVFNTETVDVAEKTLRIEGDMANDRDDGDSWEEPEEAIKGVSENAQSFISDGPGSYKSLSGKLEDTGSGTGSLSRLAGLGRAARRQLTEALNEFWGQLFDYHGVATAEAKSKKLDIILGLDSKMNPKPAPASLKVESSAYIPSGSARIPEPLINSHVYSPKQQFASNIVDSAYRVPKEPSSTSSMWSNHMKLVGAYVQSSNSNMLDSGERRYSSMRIPATSAGYDQQPATVHGYQITAYLNQLAKERGSDYLNGQLESPSPRSVSSLTSNYAEPLARVSGQKPQSGVSSRAPPGFGNVPVGRNNSMQPTNTTSVDHSSTETAESVAGSANSKKYYSLPDISGRYVPRQDSIVSDARAQWYNSMGFGQSGGRSTYEQAYMSGSLRAGGPQRYEHSPKVCRDAFSLQYSSNSGTGSLWSRQPFEQFGVAGKPDVGSGDHGTVLSSSAQESTSTVDLEAKLLQSFRSCIVKLLKLEGSEWLFRQDDGADEDLIGRIAAREKFLYEAETREISRLTNIGESHFSSNRKPGSAPKPEEMDYTKFLVMSVPHCGEGCVWKVDLIISFGVWCIHRILELSLMESRPELWGKYTYVLNRLQGIVDLAFSKPHSPTSHCFCLQIPAGRQQKASPPPISNGNLPPQAKQGRGKCTTAAMLLEMIKDVETAISCRKGRTGTAAGDVAFPKGKENLASVLKRYKRRLSNKPVGNQEVAGVAGPRKVTLSASSPPFVL
modifications: unlabeled in the MST titration of labeled LeETR1; Alexa Fluor 488 label in the reverse MST titration; Alexa Fluor 568 succinimidyl-ester label in the FRET assay; left off: His10, end not stated, state
notes: recombinant C-terminal part of tomato EIN2, expressed in E. coli
As for B1, the Kd amounted to 619 nM.

These data come from paper PMC4967898, “Peptides interfering with protein-protein interactions in the ethylene signaling pathway delay tomato fruit ripening” (Scientific Reports, 2016).
